*1 amine or outer side, *2 acyl side, *3 side chain or, on linkers, in order; H or OH if unused. Side-chain parts run from the residue outwards. The star is where a group is joined. C18 diacid = O=C(O)CCCCCCCCCCCCCCCCC(=O)*; γGlu = O=C(O)[C@H](CCC(=O)[*:2])N[*:1]; Isovaleryl = CC(C)CC(=O)*; Ahx = NCCCCCC(=O)O

Here are results for 6 molecules from patent publication US20260015399A1 (Boehringer Ingelheim, published 2026).

Sequences and labels used below:
T1: human NPY2 receptor (human, UniProt P49146 1-381)
T1 construct: whole, on cells; also called hNPY2-R; hNPY2R
T1 sequence (looked up): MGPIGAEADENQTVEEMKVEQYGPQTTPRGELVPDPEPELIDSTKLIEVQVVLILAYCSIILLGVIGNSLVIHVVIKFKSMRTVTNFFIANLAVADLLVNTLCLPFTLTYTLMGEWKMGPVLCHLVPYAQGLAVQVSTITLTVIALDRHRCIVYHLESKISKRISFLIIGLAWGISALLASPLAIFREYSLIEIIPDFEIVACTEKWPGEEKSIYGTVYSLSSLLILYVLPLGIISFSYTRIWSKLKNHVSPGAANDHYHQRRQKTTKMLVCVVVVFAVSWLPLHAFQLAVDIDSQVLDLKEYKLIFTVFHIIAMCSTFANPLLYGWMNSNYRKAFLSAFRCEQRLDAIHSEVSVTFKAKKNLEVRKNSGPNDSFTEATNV

B1: Compound 58 (peptide)
peptide: Isovaleryl-APEK([Ahx-γGlu-C18 diacid])PEEDATPEEVQRYYVSLRHYYNWLTRQRY-NH2
SMILES: CC(C)CC(=O)N[C@@H](C)C(=O)N1CCC[C@H]1C(=O)N[C@@H](CCC(=O)O)C(=O)N[C@@H](CCCCNC(=O)CCCCCNC(=O)CC[C@H](NC(=O)CCCCCCCCCCCCCCCCC(=O)O)C(=O)O)C(=O)N1CCC[C@H]1C(=O)N[C@@H](CCC(=O)O)C(=O)N[C@@H](CCC(=O)O)C(=O)N[C@@H](CC(=O)O)C(=O)N[C@@H](C)C(=O)N[C@H](C(=O)N1CCC[C@H]1C(=O)N[C@@H](CCC(=O)O)C(=O)N[C@@H](CCC(=O)O)C(=O)N[C@H](C(=O)N[C@@H](CCC(N)=O)C(=O)N[C@@H](CCCNC(=N)N)C(=O)N[C@@H](Cc1ccc(O)cc1)C(=O)N[C@@H](Cc1ccc(O)cc1)C(=O)N[C@H](C(=O)N[C@@H](CO)C(=O)N[C@@H](CC(C)C)C(=O)N[C@@H](CCCNC(=N)N)C(=O)N[C@@H](Cc1c[nH]cn1)C(=O)N[C@@H](Cc1ccc(O)cc1)C(=O)N[C@@H](Cc1ccc(O)cc1)C(=O)N[C@@H](CC(N)=O)C(=O)N[C@@H](Cc1c[nH]c2ccccc12)C(=O)N[C@@H](CC(C)C)C(=O)N[C@H](C(=O)N[C@@H](CCCNC(=N)N)C(=O)N[C@@H](CCC(N)=O)C(=O)N[C@@H](CCCNC(=N)N)C(=O)N[C@@H](Cc1ccc(O)cc1)C(N)=O)[C@@H](C)O)C(C)C)C(C)C)[C@@H](C)O
B2: Compound 62 (peptide)
peptide: Isovaleryl-APAK([Ahx-γGlu-C18 diacid])PPEDASPEELQRYYVELRHYYNWLTRQRY-NH2
SMILES: CC(C)CC(=O)N[C@@H](C)C(=O)N1CCC[C@H]1C(=O)N[C@@H](C)C(=O)N[C@@H](CCCCNC(=O)CCCCCNC(=O)CC[C@H](NC(=O)CCCCCCCCCCCCCCCCC(=O)O)C(=O)O)C(=O)N1CCC[C@H]1C(=O)N1CCC[C@H]1C(=O)N[C@@H](CCC(=O)O)C(=O)N[C@@H](CC(=O)O)C(=O)N[C@@H](C)C(=O)N[C@@H](CO)C(=O)N1CCC[C@H]1C(=O)N[C@@H](CCC(=O)O)C(=O)N[C@@H](CCC(=O)O)C(=O)N[C@@H](CC(C)C)C(=O)N[C@@H](CCC(N)=O)C(=O)N[C@@H](CCCNC(=N)N)C(=O)N[C@@H](Cc1ccc(O)cc1)C(=O)N[C@@H](Cc1ccc(O)cc1)C(=O)N[C@H](C(=O)N[C@@H](CCC(=O)O)C(=O)N[C@@H](CC(C)C)C(=O)N[C@@H](CCCNC(=N)N)C(=O)N[C@@H](Cc1c[nH]cn1)C(=O)N[C@@H](Cc1ccc(O)cc1)C(=O)N[C@@H](Cc1ccc(O)cc1)C(=O)N[C@@H](CC(N)=O)C(=O)N[C@@H](Cc1c[nH]c2ccccc12)C(=O)N[C@@H](CC(C)C)C(=O)N[C@H](C(=O)N[C@@H](CCCNC(=N)N)C(=O)N[C@@H](CCC(N)=O)C(=O)N[C@@H](CCCNC(=N)N)C(=O)N[C@@H](Cc1ccc(O)cc1)C(N)=O)[C@@H](C)O)C(C)C
B3: Compound 59 (peptide)
peptide: Isovaleryl-APAK([Ahx-γGlu-C18 diacid])PEEDASPEELQRYYVQLRHYYNWLTRQRY-NH2
SMILES: CC(C)CC(=O)N[C@@H](C)C(=O)N1CCC[C@H]1C(=O)N[C@@H](C)C(=O)N[C@@H](CCCCNC(=O)CCCCCNC(=O)CC[C@H](NC(=O)CCCCCCCCCCCCCCCCC(=O)O)C(=O)O)C(=O)N1CCC[C@H]1C(=O)N[C@@H](CCC(=O)O)C(=O)N[C@@H](CCC(=O)O)C(=O)N[C@@H](CC(=O)O)C(=O)N[C@@H](C)C(=O)N[C@@H](CO)C(=O)N1CCC[C@H]1C(=O)N[C@@H](CCC(=O)O)C(=O)N[C@@H](CCC(=O)O)C(=O)N[C@@H](CC(C)C)C(=O)N[C@@H](CCC(N)=O)C(=O)N[C@@H](CCCNC(=N)N)C(=O)N[C@@H](Cc1ccc(O)cc1)C(=O)N[C@@H](Cc1ccc(O)cc1)C(=O)N[C@H](C(=O)N[C@@H](CCC(N)=O)C(=O)N[C@@H](CC(C)C)C(=O)N[C@@H](CCCNC(=N)N)C(=O)N[C@@H](Cc1c[nH]cn1)C(=O)N[C@@H](Cc1ccc(O)cc1)C(=O)N[C@@H](Cc1ccc(O)cc1)C(=O)N[C@@H](CC(N)=O)C(=O)N[C@@H](Cc1c[nH]c2ccccc12)C(=O)N[C@@H](CC(C)C)C(=O)N[C@H](C(=O)N[C@@H](CCCNC(=N)N)C(=O)N[C@@H](CCC(N)=O)C(=O)N[C@@H](CCCNC(=N)N)C(=O)N[C@@H](Cc1ccc(O)cc1)C(N)=O)[C@@H](C)O)C(C)C
B4: Compound 61 (peptide)
peptide: Isovaleryl-APEK([Ahx-γGlu-C18 diacid])PPADASPEEIQRYYVSLRHYYNWLTRQRY-NH2
SMILES: CC[C@H](C)[C@H](NC(=O)[C@H](CCC(=O)O)NC(=O)[C@H](CCC(=O)O)NC(=O)[C@@H]1CCCN1C(=O)[C@H](CO)NC(=O)[C@H](C)NC(=O)[C@H](CC(=O)O)NC(=O)[C@H](C)NC(=O)[C@@H]1CCCN1C(=O)[C@@H]1CCCN1C(=O)[C@H](CCCCNC(=O)CCCCCNC(=O)CC[C@H](NC(=O)CCCCCCCCCCCCCCCCC(=O)O)C(=O)O)NC(=O)[C@H](CCC(=O)O)NC(=O)[C@@H]1CCCN1C(=O)[C@H](C)NC(=O)CC(C)C)C(=O)N[C@@H](CCC(N)=O)C(=O)N[C@@H](CCCNC(=N)N)C(=O)N[C@@H](Cc1ccc(O)cc1)C(=O)N[C@@H](Cc1ccc(O)cc1)C(=O)N[C@H](C(=O)N[C@@H](CO)C(=O)N[C@@H](CC(C)C)C(=O)N[C@@H](CCCNC(=N)N)C(=O)N[C@@H](Cc1c[nH]cn1)C(=O)N[C@@H](Cc1ccc(O)cc1)C(=O)N[C@@H](Cc1ccc(O)cc1)C(=O)N[C@@H](CC(N)=O)C(=O)N[C@@H](Cc1c[nH]c2ccccc12)C(=O)N[C@@H](CC(C)C)C(=O)N[C@H](C(=O)N[C@@H](CCCNC(=N)N)C(=O)N[C@@H](CCC(N)=O)C(=O)N[C@@H](CCCNC(=N)N)C(=O)N[C@@H](Cc1ccc(O)cc1)C(N)=O)[C@@H](C)O)C(C)C
B5: Compound 66 (peptide)
peptide: Isovaleryl-APEK([Ahx-γGlu-C18 diacid])PEEDATPEELQRYYISLRHYYNWLTRQRY-NH2
SMILES: CC[C@H](C)[C@H](NC(=O)[C@H](Cc1ccc(O)cc1)NC(=O)[C@H](Cc1ccc(O)cc1)NC(=O)[C@H](CCCNC(=N)N)NC(=O)[C@H](CCC(N)=O)NC(=O)[C@H](CC(C)C)NC(=O)[C@H](CCC(=O)O)NC(=O)[C@H](CCC(=O)O)NC(=O)[C@@H]1CCCN1C(=O)[C@@H](NC(=O)[C@H](C)NC(=O)[C@H](CC(=O)O)NC(=O)[C@H](CCC(=O)O)NC(=O)[C@H](CCC(=O)O)NC(=O)[C@@H]1CCCN1C(=O)[C@H](CCCCNC(=O)CCCCCNC(=O)CC[C@H](NC(=O)CCCCCCCCCCCCCCCCC(=O)O)C(=O)O)NC(=O)[C@H](CCC(=O)O)NC(=O)[C@@H]1CCCN1C(=O)[C@H](C)NC(=O)CC(C)C)[C@@H](C)O)C(=O)N[C@@H](CO)C(=O)N[C@@H](CC(C)C)C(=O)N[C@@H](CCCNC(=N)N)C(=O)N[C@@H](Cc1c[nH]cn1)C(=O)N[C@@H](Cc1ccc(O)cc1)C(=O)N[C@@H](Cc1ccc(O)cc1)C(=O)N[C@@H](CC(N)=O)C(=O)N[C@@H](Cc1c[nH]c2ccccc12)C(=O)N[C@@H](CC(C)C)C(=O)N[C@H](C(=O)N[C@@H](CCCNC(=N)N)C(=O)N[C@@H](CCC(N)=O)C(=O)N[C@@H](CCCNC(=N)N)C(=O)N[C@@H](Cc1ccc(O)cc1)C(N)=O)[C@@H](C)O
B6: Compound 60 (peptide)
peptide: Isovaleryl-APEK([Ahx-γGlu-C18 diacid])PEEDASPEELQRYYVSLRHYYQWLTRQRY-NH2
SMILES: CC(C)CC(=O)N[C@@H](C)C(=O)N1CCC[C@H]1C(=O)N[C@@H](CCC(=O)O)C(=O)N[C@@H](CCCCNC(=O)CCCCCNC(=O)CC[C@H](NC(=O)CCCCCCCCCCCCCCCCC(=O)O)C(=O)O)C(=O)N1CCC[C@H]1C(=O)N[C@@H](CCC(=O)O)C(=O)N[C@@H](CCC(=O)O)C(=O)N[C@@H](CC(=O)O)C(=O)N[C@@H](C)C(=O)N[C@@H](CO)C(=O)N1CCC[C@H]1C(=O)N[C@@H](CCC(=O)O)C(=O)N[C@@H](CCC(=O)O)C(=O)N[C@@H](CC(C)C)C(=O)N[C@@H](CCC(N)=O)C(=O)N[C@@H](CCCNC(=N)N)C(=O)N[C@@H](Cc1ccc(O)cc1)C(=O)N[C@@H](Cc1ccc(O)cc1)C(=O)N[C@H](C(=O)N[C@@H](CO)C(=O)N[C@@H](CC(C)C)C(=O)N[C@@H](CCCNC(=N)N)C(=O)N[C@@H](Cc1c[nH]cn1)C(=O)N[C@@H](Cc1ccc(O)cc1)C(=O)N[C@@H](Cc1ccc(O)cc1)C(=O)N[C@@H](CCC(N)=O)C(=O)N[C@@H](Cc1c[nH]c2ccccc12)C(=O)N[C@@H](CC(C)C)C(=O)N[C@H](C(=O)N[C@@H](CCCNC(=N)N)C(=O)N[C@@H](CCC(N)=O)C(=O)N[C@@H](CCCNC(=N)N)C(=O)N[C@@H](Cc1ccc(O)cc1)C(N)=O)[C@@H](C)O)C(C)C

This experiment concerns the target T1, human NPY2 receptor. Briefly: RLB: displacement of 125I-PYY(1-36) from hNPY2R membranes. In general terms: Displacement assays read how much labelled ligand stays bound in the presence of the test substance.
A word on the Ki: it is the dissociation constant of the complex between target and ligand, obtained from inhibition or displacement. A high value points to weaker binding. Molecule B1 showed a Ki of 3.46 nM. The value for B2 was 1.44 nM. The same measure for B3: 1.93 nM. For B4, the Ki came out at 0.41 nM.

Take B5: the Ki turned out to be 2.33 nM. The same measure for B6: 6.04 nM.
